Source: patent publication US20210047373A1, “BETA BARREL POLYPEPTIDES AND METHODS FOR THEIR USE” (UNIVERSITY OF WASHINGTON, priority 2018, published 2021)
Numbering of substitutions follows the chain as printed. “And” between values parts separate entries of the source, which are not always exact repeats. Equal entries are not always repeated.

B1: mFAP1: SEQ ID NO:33; variant of b11L5F.2 (protein)
chain: MSRAAQLLPGTWQTTMTNEDGQTSQGQMHFQPRSPYTLDVVAQGTISDGRPISGYGKVTVKTDDTLDVDITYPSLGNIKVQGQVTMDSPTQFKFDATTSDGKKLTGTLQRQE
modifications: (1)..(1) optionally absent
B2: mFAP2: SEQ ID NO:38; variant of b11L5F.1 with 6-residue insertion in the seventh β-turn (protein)
chain: MSRAAQLLPGTWQVTMTNEDGQTSQGQMHFQPRSPYTMDVVAQGTISDGRPISGYGKVTVKTPDTLDVDITYPSLGNIKAQGQITMDSPTQFKFDATTKGAGNFTGRLTGTLQRQE
modifications: (1)..(1) optionally absent
B3: mFAP2.1: SEQ ID NO:40 (protein)
chain: B2 chain with P51T, S53V
modifications: (1)..(1) optionally absent
B4: mFAP2.2: SEQ ID NO:41 (protein)
chain: B2 chain with S53V
modifications: (1)..(1) optionally absent

What was measured:
[1] = Fluorescence brightness with DFHO; type: biochemical; conditions: normalized 0 to 1 across all three chromophores; average ± SD of two protein concentrations
Procedure: (§1) Table 3A-C. Brightness and chromophore affinities of selected mFAP variants. Fluorescence brightness measurements at 10 μM (top table) and 100 nM (middle table) chromophore concentrations were normalized from 0 to 1 across all three chromophores (DFHBI, DFHBI-1T, and DFHO), and the normalized values for two protein concentrations tested for each chromophore at each chromophore concentration were averaged and standard deviations of the average computed. Reported values are the normalized averages and standard deviations of the means for each chromophore concentration and each chromophore. Reported relative densitometry values are the relative densitometry values normalized from 0 to 1 and represent how well each design expresses relative to one another in Lemo21(DE3) E. coli cultures. Thermodynamic dissociation constants (bottom table) are obtained by non-linear least squares fitting of chromophore titrations (n=1) to a single binding site isotherm, and values reported with the standard deviation of the fit. Where the obtained Kd values are below the protein concentration tested, the Kd and standard deviation of the fit are reported in parentheses. Values with “N/D” were not determined.

[2] = Fluorescence activation / brightness with DFHBI; type: biochemical; conditions: normalized 0 to 1 across all three chromophores; average ± SD of two protein concentrations
Procedure: (§2) Fluorescence binding assay. Protein-activated DFHBI fluorescence signals were measured in 96-well plate format (Corning 3650) on a Synergy neo2 plate reader (BioTek, Inc) with λex=450 nm or 460 nm and λem=500 nm or 510 nm. Binding reactions were performed at […] in PBS pH7.4 buffer. Protein concentrations were determined by 280 nm absorbance as described above. DFHBI (Lucerna, Inc) were resuspended in DMSO as instructed to make 100 mM stock and diluted in PBS to 0.5-10 μM. Approximate emission spectra were recorded for active designs from 490 to 600 nm.
as §1

[3] = Fluorescence brightness with DFHBI-1T; type: biochemical; conditions: normalized 0 to 1 across all three chromophores; average ± SD of two protein concentrations
Procedure: as §1

[4] = Chromophore titration, fit to single binding site isotherm: DFHBI-1T; conditions: n=1 titration; ± SD of the fit; Table 3C
Procedure: as §1

[5] = Chromophore titration, fit to single binding site isotherm: DFHO; conditions: n=1 titration; ± SD of the fit; Table 3C
Procedure: as §1

[6] = Chromophore titration, fit to single binding site isotherm: DFHBI
Procedure: as §2, §1

[7] = system: E. coli, yeast, and mammalian cells; experiment: Confocal imaging of cells expressing mFAPs with DFHBI; type: cell-based; conditions: 20 μM DFHBI
Procedure: To determine whether the designed DFHBI-binding fluorescence-activating proteins function in living cells, we imaged mFAP1- and mFAP2-DFHBI complexes in E. coli, yeast, and mammalian cells by confocal microscopy. […] The quantum yield of mFAP1 and mFAP2 in complex with DFHBI is 2.0% and 2.1% respectively (Table 2).
Confocal image acquisition. Mammalian cell imaging of mFAP1 and mFAP2 was performed in NIH3T3 cells (Flp-In-3T3, Thermo Fisher Scientific, Inc). NIH3T3 cells were cultured in high-glucose DMEM, 4 mM L-glutamine, 10% fetal bovine serum (FBS, Life Technologies, Inc) at 37 degrees Celsius, 5% CO2. Cells were plated at 4×10^4 cells/mL in 35 mm glass-bottomed dishes (Matek, Inc) that were coated with poly-D-lysine. Cells were transfected 24 hours after plating with Lipofectamine™ 3000 (Thermo Fisher Scientific, Inc) at a ratio of 3 μL reagent:1 μL DNA, according to manufacturer's instructions, with […] plasmids of mFAPs or mFAP fusions (1.25 μg mCherry™ plasmid was added to the cytosolic constructs as a transfection control). Right before imaging, cell media was replaced with FluorBrite™ DMEM (Thermo Fisher Scientific, Inc) media supplemented with GlutaMax™ (Thermo Fisher Scientific, Inc) and 10% v/v FBS, and 20 μM DFHBI. […] A white light laser of 488 was used to excite the DFHBI and detected by a HyD detector, over a range of 495-550 nm. […]

[8] = Photophysical characterization (absorbance, excitation, emission, extinction coefficient, quantum yield); type: physicochemical; conditions: absolute
[9] = Circular dichroism, thermal and GuHCl denaturation; type: physicochemical; conditions: CD in the absence of DFHBI, pH 2.93
Procedure: Circular dichroism (CD). Purified protein samples were prepared at 0.5 mg/ml in 20 mM Tris buffer (150 mM NaCl, pH8.0) or PBS buffer (25 mM phosphate, 150 mM NaCl, pH7.4). Wavelength scans from 195 nm to 260 nm were recorded at 25 degrees Celsius, 75 degrees Celsius, 95 degrees Celsius and cooling back to 25 degrees Celsius. Thermal denaturation was monitored at 220 nm or 226 nm from 25 degrees Celsius to 95 degrees Celsius. Near-UV wavelength scan from 240 nm to 320 nm and tryptophan fluorescence emission were recorded in the absence and presence of 5M guanidinium chloride (GuHCl). Chemical denaturation in GuHCl was monitored by both tryptophan fluorescence and near-UV CD signal at 285 nm. The concentration of the GuHCl stock solution was measured with a refractometer (Spectronic Instruments, Inc). Far-UV CD experiments were performed on an AVIV model 420 CD spectrometer (Aviv Biomedical, Inc). Near-UV CD and tryptophan fluorescence experiments were performed on a Jasco J-1500 CD spectrometer (Jasco, Inc). Protein concentrations were determined by 280 nm absorbance with a NanoDrop™spectrophotometer (ThermoScientific, Inc). Melting temperatures were estimated by smoothing the sparse data with a Savitsky-Golay filter of order 3 and approximating the smoothed data with a cubic spline to compute derivatives. Reported Tm values are the inflection points of the melting curves.

[10] = pH-dependent fluorescence of mFAP/DFHBI complexes; type: biochemical
Excerpt: FIG. 22: In vitro characterization of the pH-responsive mFAP_pH and comparison to the existing pHRed system and pH-unresponsive mFAP2b. (a-c) Chemical basis of pH-responsiveness in mFAP_pH. (a) Chemical structures of protonated tautomers and deprotonated resonance structures of DFHBI. […] The arrangement of intermolecular hydrogen bonds in the binding site of mFAP2b (c, binding pocket of the design model with the phenolate form of DFHBI) has low shape complementarity to the protonated DFHBI tautomers. The mutations W27M and W93F improve binding to the protonated DFHBI tautomers (b, model of mFAP_pH binding pocket with the phenolic form of DFHBI). […] (d) Normalized fluorescence excitation spectra of the mFAP_pH/DFHBI complex are shown for a pH titration from pH 3.63 to pH 8.38. (e) mFAP_pH normalized fluorescence emission spectra at pH 3.63 and pH 8.38. […] (f) Binding of mFAP_pH to both the phenolic and phenolate forms of DFHBI results in a high fluorescence ratio fold-change from low to high pH. (h, i) pH-dependent fluorescence of the mFAPpH/DFHBI complex compared to the previously described pHRed system. […] (i) Fluorescence ratios (Fratio) of unnormalized fluorescence measurements from panel (h) for mFAP_pH and pHRed. […]
We sought to further improve fluorescence of the complex at acidic and neutral pH and built a site-directed mutagenesis (SDM) library at 15 positions of mFAP2.1. […]

[11] = n=1 titration, ± SD of the fit, Table 3C, read-out: DFHBI Kd

Row | Molecule | Fluorescence brightness, 100 nM DFHO [1] | Fluorescence brightness, 10 μM DFHO [1] | Fluorescence brightness, 100 nM DFHBI [2] | Fluorescence brightness, 10 μM DFHBI [2] | Fluorescence brightness, 100 nM DFHBI-1T [3] | Fluorescence brightness, 10 μM DFHBI-1T [3] | Kd [4] [µM] | Kd [5] [µM] | Kd [6, 11] [µM] | Kd ([6]; obtained Kd below the protein concentration tested, ± SD of the fit, read-out: DFHBI Kd, fit value in parentheses) [µM] | In vivo fluorescence activation [7] | Quantum yield in complex with DFHBI [8] [%] | Kd ([6]; read-out: Dissociation constant of DFHBI) | Stability at low pH [9] | Fluorescence in the presence of DFHBI at acidic pH ([10]; pH 3.66) | Fluorescence ratio fold-change, higher than mFAP2.1 ([10]; across pH 3.66-7.36) [fold]
1 | B1 | 0.01 ± 0.0 | 0.0 ± 0.0 | 0.18 ± 0.0 | 0.13 ± 0.02 | 0.01 ± 0.0 | 0.01 ± 0.0 | 10.8 ± 1 | 7.8 ± 2.89 | < 0.5 | 0.496 | showed in vivo fluorescence activation | 2.0 |  |  |  | 
2 | B2 | 0.01 ± 0.0 | 0.01 ± 0.0 | 0.12 ± 0.0 | 0.14 ± 0.03 | 0.15 ± 0.01 | 0.33 ± 0.04 | 43.2 ± 7.01 | 22.7 ± 9.66 | 1.15 ± 0.16 |  | showed in vivo fluorescence activation | 2.1 | ~0.2 µM and ~0.18 µM |  |  | 
3 | B3 | 0.01 ± 0.0 | 0.01 ± 0.0 | 0.13 ± 0.0 | 0.07 ± 0.02 | 0.34 ± 0.01 | 0.25 ± 0.01 |  |  |  |  |  |  |  | improved stability | higher fluorescence | 
4 | B4 | 0.01 ± 0.0 | 0.01 ± 0.0 | 0.13 ± 0.0 | 0.17 ± 0.03 | 0.33 ± 0.02 | 0.55 ± 0.02 | 43.2 ± 7.01 | 22.7 ± 9.66 | 1.15 ± 0.16 |  |  |  |  |  |  | ~1.3
